Laboratory results as given in paper PMC11306785.

Target: FLAG-PPM1G-YLmut (human) (UniProt O15355)
Test: co-IP; anti-FLAG affinity gel (25 μl), 1-2 mg lysate of transiently transfected HEK293H cells, 1 h at 4°C, lysis buffer 50 mM HEPES-KOH pH 7.5, 50 mM KCl, 2 mM MgCl2, 2 mM EGTA, 5% glycerol, 0.5% NP40; partners detected by Western blot; in Figure 3B cells treated with DMSO or PP242 for 2 h

UniProt O15355, sequence (O15355 whole entry Y85A/L90A): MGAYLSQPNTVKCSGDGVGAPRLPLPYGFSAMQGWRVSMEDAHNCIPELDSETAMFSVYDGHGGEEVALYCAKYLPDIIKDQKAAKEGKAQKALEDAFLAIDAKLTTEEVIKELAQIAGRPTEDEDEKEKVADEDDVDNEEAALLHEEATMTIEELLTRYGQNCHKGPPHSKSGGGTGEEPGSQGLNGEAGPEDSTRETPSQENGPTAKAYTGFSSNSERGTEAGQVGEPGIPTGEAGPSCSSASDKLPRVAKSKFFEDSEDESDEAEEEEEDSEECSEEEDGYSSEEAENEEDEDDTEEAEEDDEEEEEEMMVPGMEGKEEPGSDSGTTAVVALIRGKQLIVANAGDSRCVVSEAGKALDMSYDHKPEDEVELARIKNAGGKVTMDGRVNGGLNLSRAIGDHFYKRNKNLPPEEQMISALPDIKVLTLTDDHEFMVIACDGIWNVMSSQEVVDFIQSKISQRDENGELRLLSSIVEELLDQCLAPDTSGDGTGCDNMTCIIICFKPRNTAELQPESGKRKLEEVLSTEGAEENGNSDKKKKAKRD

- percent decrease of binding against wild-type PPM1G: 80%
Substance: endogenous eIF4E (from UniProt P06730 1-217) (natural protein)
